We go through 33 substances from patent publication US20190263934A1.

The target in test [1] is biotinylated hFcRn (human) (UniProt P55899). The test can be described thus: SPR Biacore, pH 7.4.
Target sequence in this assay (P55899 24-297 limits assumed, form in doubt, chain 1 of 2): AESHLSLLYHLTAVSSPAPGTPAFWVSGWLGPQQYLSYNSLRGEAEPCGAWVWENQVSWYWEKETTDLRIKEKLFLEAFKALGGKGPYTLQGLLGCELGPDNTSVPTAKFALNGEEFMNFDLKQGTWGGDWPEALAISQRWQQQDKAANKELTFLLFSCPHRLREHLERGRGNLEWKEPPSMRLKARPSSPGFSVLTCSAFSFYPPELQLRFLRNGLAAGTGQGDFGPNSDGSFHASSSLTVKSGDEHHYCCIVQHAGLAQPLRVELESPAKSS
Target sequence in this assay (P61769 21-119 limits assumed, form in doubt, chain 2 of 2, further chain): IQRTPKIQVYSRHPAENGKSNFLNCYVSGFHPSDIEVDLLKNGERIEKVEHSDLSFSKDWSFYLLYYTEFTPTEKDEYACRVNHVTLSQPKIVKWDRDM
Test [2] concerns the target rFcRn (rat) (UniProt P13599). The test can be described thus: SPR Biacore, pH 7.4.
Target sequence in this assay (P13599 23-298 limits assumed, form in doubt, chain 1 of 2): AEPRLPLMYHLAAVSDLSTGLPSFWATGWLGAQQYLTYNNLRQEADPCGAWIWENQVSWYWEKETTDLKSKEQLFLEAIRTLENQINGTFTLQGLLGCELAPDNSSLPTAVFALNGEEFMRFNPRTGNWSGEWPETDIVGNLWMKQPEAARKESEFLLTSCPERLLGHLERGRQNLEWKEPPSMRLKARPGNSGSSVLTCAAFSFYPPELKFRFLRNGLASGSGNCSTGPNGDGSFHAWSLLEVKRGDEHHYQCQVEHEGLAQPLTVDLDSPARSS
Target sequence in this assay (P07151 21-119 limits assumed, form in doubt, chain 2 of 2, further chain): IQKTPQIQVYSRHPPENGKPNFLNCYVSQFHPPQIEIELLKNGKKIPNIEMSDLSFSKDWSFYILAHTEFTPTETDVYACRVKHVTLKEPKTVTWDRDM
Test [3] deals with biotinylated hFcRn (human) (UniProt P55899). The experiment in a line: SPR Biacore, pH 6.0. A general note: SPR reads the build-up and loss of mass on a sensor chip optically.
Target sequence in this assay (P55899 24-297 limits assumed, form in doubt, chain 1 of 2): as the sequence (P55899 24-297 limits assumed, form in doubt, chain 1 of 2) above
Target sequence in this assay (P61769 21-119 limits assumed, form in doubt, chain 2 of 2, further chain): as the sequence (P61769 21-119 limits assumed, form in doubt, chain 2 of 2, further chain) above
For test [4], the target named is rFcRn (rat) (UniProt P13599). The experiment in a line: SPR Biacore, pH 6.0.
Target sequence in this assay (P13599 23-298 limits assumed, form in doubt, chain 1 of 2): as the sequence (P13599 23-298 limits assumed, form in doubt, chain 1 of 2) above
Target sequence in this assay (P07151 21-119 limits assumed, form in doubt, chain 2 of 2, further chain): as the sequence (P07151 21-119 limits assumed, form in doubt, chain 2 of 2, further chain) above
In test [5] the target is rFcRn (rat) (UniProt P13599). The test can be described thus: Biacore SPR, pH 6.0, bivalent fit.
Target sequence in this assay (P13599 23-298, form in doubt, chain 1 of 2): as the sequence (P13599 23-298 limits assumed, form in doubt, chain 1 of 2) above
Target sequence in this assay (P07151 21-119, form in doubt, chain 2 of 2, further chain): as the sequence (P07151 21-119 limits assumed, form in doubt, chain 2 of 2, further chain) above
For test [6], the target named is biotinylated hFcRn (human) (UniProt P55899). The test can be described thus: SPR Biacore, pH 7.4, 1000 nM antibody.
Target sequence in this assay (P55899 24-297 limits assumed, form in doubt, chain 1 of 2): as the sequence (P55899 24-297 limits assumed, form in doubt, chain 1 of 2) above
Target sequence in this assay (P61769 21-119 limits assumed, form in doubt, chain 2 of 2, further chain): as the sequence (P61769 21-119 limits assumed, form in doubt, chain 2 of 2, further chain) above
Test [7] addresses rFcRn (rat) (UniProt P13599). The test can be described thus: SPR Biacore, pH 7.4, 1000 nM antibody.
Target sequence in this assay (P13599 23-298 limits assumed, form in doubt, chain 1 of 2): as the sequence (P13599 23-298 limits assumed, form in doubt, chain 1 of 2) above
Target sequence in this assay (P07151 21-119 limits assumed, form in doubt, chain 2 of 2, further chain): as the sequence (P07151 21-119 limits assumed, form in doubt, chain 2 of 2, further chain) above
The target of test [8] is biotinylated hFcRn (human) (UniProt P55899). The experiment in a line: Biacore SPR, pH 6.0, bivalent fit.
Target sequence in this assay (P55899 24-297, form in doubt, chain 1 of 2): as the sequence (P55899 24-297 limits assumed, form in doubt, chain 1 of 2) above
Target sequence in this assay (P61769 21-119, form in doubt, chain 2 of 2, further chain): as the sequence (P61769 21-119 limits assumed, form in doubt, chain 2 of 2, further chain) above
Test [9] has the same target. The test can be described thus: SPR Biacore, pH 6.0. This is another data set of the same source.
Target sequence in this assay (P55899 24-297 limits assumed, form in doubt, chain 1 of 2): as the sequence (P55899 24-297 limits assumed, form in doubt, chain 1 of 2) above
Target sequence in this assay (P61769 21-119 limits assumed, form in doubt, chain 2 of 2, further chain): as the sequence (P61769 21-119 limits assumed, form in doubt, chain 2 of 2, further chain) above
The target of test [10] is biotinylated human FcRn (hFcRn; p51 subunit residues 24-297 with C-terminal Avi-tag, β2-m residues 21-119) (human) (UniProt P55899). The test can be described thus: Biacore SPR, pH 6.0, apparent affinity.
For test [11] the target is unchanged. The experiment in a line: Biacore SPR; second ratio column (inverse of c7).
The target is the same in test [12]. The test can be described thus: Biacore SPR, pH 7.4, steady state, 1000 nM antibody.
Test [13] has the same target. The test can be described thus: Biacore SPR; pH 6.0 affinity (M^-1) over pH 7.4 steady state RU.

biotinylated human FcRn (hFcRn; p51 subunit residues 24-297 with C-terminal Avi-tag, β2-m residues 21-119) (human), sequence (P55899 24-297, form in doubt, chain 1 of 2): as the sequence (P55899 24-297 limits assumed, form in doubt, chain 1 of 2) above
biotinylated human FcRn (hFcRn; p51 subunit residues 24-297 with C-terminal Avi-tag, β2-m residues 21-119) (human), sequence (P61769 21-119, form in doubt, chain 2 of 2, further chain): as the sequence (P61769 21-119 limits assumed, form in doubt, chain 2 of 2, further chain) above

Broadly, the koff is a measure of how fast the partners let go of each other. Read a low koff as slow dissociation. In general, kon refers to a measure of how fast the partners come together. Read a low kon as slower complex formation. Substance mAb1 M252Y/T256E (antibody) displayed a Steady State RU in test [1] of 9.8 RU. In test [2], this substance showed a Steady State RU of 55.1 RU. In test [3], this substance registered a Kd of 128 nM, a koff of 0.0757 s⁻¹ and a kon of 592000 M⁻¹ s⁻¹. For the same substance, in [4], the Kd amounted to 8.43 nM, the koff amounted to 0.00273 s⁻¹ and the kon came to 324000 M⁻¹ s⁻¹.
Turning to mAb1 T256E/T307Q (antibody), in [2], the Steady State RU stood at 23.4 RU. The Kd in [3] stood at 499 nM; in [4], 10.7 nM.
Regarding mAb1 T307Q/N434Y (antibody), the Steady State RU in test [1] was determined as 38.4 RU; in [2] it was 63 RU. For the same substance, the Kd is 32.4 nM in test [3] and 4.11 nM in test [4]. In addition, the values for the koff in test [3] and in test [4] were 0.0202 s⁻¹ and 0.00048 s⁻¹, respectively. Besides, the kon in test [3] worked out at 622000 M⁻¹ s⁻¹; in test [4] it was 116000 M⁻¹ s⁻¹.
mAb1 T256E/T307W (antibody) gave a Steady State RU in test [2] of 33 RU. The Kd stood at 323 nM in [3] and 10.6 nM in [4].
On to mAb1 T307A (antibody), for which the Kd in test [5] and in test [4] was 132 nM each time. In addition, the Steady State RU in test [6] is 5.2 RU; in [7] it was 23.1 RU.
With mAb1 Y436H (antibody), the Kd in test [5] and in test [4] was 131 nM throughout. The Steady State RU is 3.6 RU in [6] and 16.3 RU in test [7].
As to mAb1 T307Q/N434F (antibody), the Steady State RU in [1] came to 34.2 RU; in [2], 62.5 RU. The Kd came out at 42.9 nM in test [3] and 3.89 nM in test [4]. Moreover, the dissociation rate constant (koff) amounted to 0.0246 s⁻¹ in [3] and 0.0004 s⁻¹ in [4]. In addition, the association rate constant (kon) in [3] came out at 574000 M⁻¹ s⁻¹; in test [4] it was 104000 M⁻¹ s⁻¹.
With mAb1 T256E/N434F (antibody), in test [1], the Steady State RU was 23.3 RU. Also, the Steady State RU in test [2] is 59 RU. Moreover, in test [3], the Kd turned out to be 78.2 nM, the koff is 0.0419 s⁻¹ and the kon is 536000 M⁻¹ s⁻¹. Moreover, in test [4], the Kd amounted to 7.53 nM, the koff amounted to 0.00081 s⁻¹ and the kon was found to be 108000 M⁻¹ s⁻¹.
As to mAb1 T307M (antibody), the Kd in [5] and in test [4] was 279 nM throughout. The results for the Steady State RU in test [6] and in test [7] were 4.4 RU and 15.3 RU, respectively.
mAb1 K288D (antibody): the Kd in test [5] and in [4] was 149 nM in each case. For the same substance, the results for the Steady State RU in [6] and in test [7] were 3.8 RU and 21.9 RU, respectively.
For mAb1 T307W (antibody), the Kd in test [8] was 8740 nM; in [5], 111 nM; in test [9], over 3000 nM; in test [3] it was 8740 nM; in test [4], 111 nM. In addition, the Steady State RU in test [2] is 21.9 RU; in test [7], 19.2 RU.
As to mAb1 M252Y (antibody), the Kd in test [8] was 3100 nM; in test [5] it was 25 nM; in test [9], over 3000 nM; in [3], 3100 nM; in test [4], 25 nM. Further, the Steady State RU in test [2] came to 50.5 RU; in test [7] it was 57.7 RU.
As for mAb1 M252Y/T307W (antibody), the Steady State RU in test [1] is 15.9 RU. The Steady State RU in test [2] was 66.1 RU. In test [3], the Kd came to 118 nM, the koff stood at 0.057 s⁻¹ and the kon amounted to 483000 M⁻¹ s⁻¹. Moreover, in test [4], the Kd is 5.21 nM, the koff was 0.00109 s⁻¹ and the kon was found to be 208000 M⁻¹ s⁻¹.
Regarding mAb1 T256E/N434Y (antibody), the Steady State RU in test [1] is 26.8 RU. In [2], this substance yielded a Steady State RU of 62.2 RU. In [3], this substance had a Kd of 62.6 nM, a koff of 0.0393 s⁻¹ and a kon of 628000 M⁻¹ s⁻¹. Besides, in test [4], the Kd was 7.71 nM, the koff was found to be 0.00098 s⁻¹ and the on-rate (kon) is 127000 M⁻¹ s⁻¹.
mAb1 K288N (antibody): the Kd in test [5] and in [4] was 190 nM each time. Moreover, the Steady State RU in [7] is 20.4 RU.
With mAb1 T307F (antibody), the Kd in test [5] and in test [4] was 131 nM in each case. Besides, the Steady State RU in test [6] was 4.9 RU; in [7], 21.9 RU.
As to mAb1 Y436W (antibody), the Kd in [5] and in test [4] was 1140 nM in each case. Further, the values for the Steady State RU in test [6] and in test [7] were 3.7 RU and 10.3 RU, respectively.
For mAb1 M252Y/N434F (antibody), the Steady State RU turned out to be 43.8 RU in test [1] and 79.3 RU in test [2]. Moreover, the Kd amounted to 18 nM in [3] and 0.29 nM in test [4]. In addition, the koff in test [3] is 0.023 s⁻¹; in test [4] it was 0.00012 s⁻¹. For the same substance, the results for the kon in test [3] and in test [4] were 1.27e+06 M⁻¹ s⁻¹ and 403000 M⁻¹ s⁻¹, respectively.
Take mAb1 M252Y/N434Y (antibody): the Steady State RU was determined as 54.1 RU in [1] and 67.9 RU in test [2]. In addition, the figures for the Kd in test [3] and in test [4] were 8.32 nM and 0.26 nM, respectively. Besides, the koff turned out to be 0.0171 s⁻¹ in test [3] and 0.00014 s⁻¹ in test [4]. For the same substance, the kon in [3] turned out to be 2.06e+06 M⁻¹ s⁻¹; in [4] it was 540000 M⁻¹ s⁻¹.
In the case of mAb1 M252Y/T307Q (antibody), the results for the Steady State RU in test [1] and in test [2] were 10.6 RU and 49.2 RU, respectively. Further, the Kd is 278 nM in test [3] and 4.11 nM in test [4]. Moreover, the results for the koff in test [3] and in [4] were 0.096 s⁻¹ and 0.00105 s⁻¹, respectively. The kon is 345000 M⁻¹ s⁻¹ in test [3] and 255000 M⁻¹ s⁻¹ in test [4].
Consider mAb1 N434P (antibody), for which the Kd in [5] and in test [4] was 194 nM throughout. Moreover, the results for the Steady State RU in test [6] and in test [7] were 3.5 RU and 4.3 RU, respectively.
With “mAb1 YTTF variant (M252Y/N434F) (antibody)”, in test [10], the Ka came out at 5.56e+07 M⁻¹. Also, the Ratio (pH 7.4/pH 6.0) in [11] came to 7.88e-07. The same substance returned a Steady State Binding, pH 7.4 (RU) in [12] of 43.8 RU. The Ratio (pH 6.0/pH 7.4) in test [13] turned out to be 1.27e+06.
With “mAb1 MEWF variant (T256E/T307W/N434F) (antibody)”, the Ka in test [10] came out at 5.62e+07 M⁻¹. In addition, the Ratio (pH 7.4/pH 6.0) in [11] was determined as 7.46e-07. Moreover, the Steady State Binding, pH 7.4 (RU) in test [12] came to 41.9 RU. In addition, the Ratio (pH 6.0/pH 7.4) in test [13] was 1.34e+06.
Turning to mAb1 T256D (antibody), the Kd in test [8] was 6700 nM; in [5] it was 86 nM; in test [9], over 3000 nM; in test [3], 6700 nM; in test [4], 86 nM. Also, the Steady State RU in test [2] turned out to be 23.2 RU; in test [7], 30.4 RU.
On to mAb1 T307W/N434Y (antibody), for which the Steady State RU came out at 37.2 RU in test [1] and 69.6 RU in [2]. The Kd was found to be 21.5 nM in [3] and 0.62 nM in test [4]. Further, the koff in test [3] turned out to be 0.0317 s⁻¹; in test [4] it was 0.0003 s⁻¹. Moreover, the kon in test [3] is 1.48e+06 M⁻¹ s⁻¹; in test [4] it was 480000 M⁻¹ s⁻¹.
mAb1 T256D/N434F (antibody) had a Steady State RU in test [1] of 29.2 RU. The substance also had a Steady State RU in test [2] of 63 RU. In test [3], this substance registered a Kd of 29.9 nM, a koff of 0.029 s⁻¹ and a kon of 968000 M⁻¹ s⁻¹. In test [4], this substance displayed a Kd of 1.78 nM, a koff of 0.00039 s⁻¹ and a kon of 218000 M⁻¹ s⁻¹.
Consider mAb1 E380C (antibody), for which the Kd in test [5] and in [4] was 6310 nM throughout. Also, the Steady State RU in test [6] came out at 5.7 RU; in test [7], 27.7 RU.
On to mAb1 T307W/N434F (antibody), for which the Steady State RU turned out to be 30.5 RU in test [1] and 65.1 RU in [2]. In addition, the Kd in [3] was 38.2 nM; in test [4], 2.7 nM. Also, the koff in [4] amounted to 0.00057 s⁻¹.
As to mAb1 Y436N (antibody), the Kd in test [5] and in test [4] was 233 nM in each case. Also, the figures for the Steady State RU in [6] and in test [7] were 3.6 RU and 17.4 RU, respectively.
In test [1], mAb1 T256D/N434Y (antibody) returned a Steady State RU of 37.1 RU. Also, the Steady State RU in [2] worked out at 71.6 RU. Further, in test [3], the Kd worked out at 15.6 nM, the koff turned out to be 0.0285 s⁻¹ and the kon came out at 1.83e+06 M⁻¹ s⁻¹. Further, in [4], the Kd worked out at 0.6 nM, the koff amounted to 0.00025 s⁻¹ and the kon stood at 413000 M⁻¹ s⁻¹.
Turning to “mAb1 METF variant (T256E/N434F) (antibody)”, the Ka in test [10] was 1.28e+07 M⁻¹. The Ratio (pH 6.0/pH 7.4) in test [11] came out at 1.82e-06; in [13], 549000. Also, the Steady State Binding, pH 7.4 (RU) in [12] was determined as 23.3 RU.
Take “mAb1 METY variant (T256E/N434Y) (antibody)”: the Ka in test [10] was found to be 1.6e+07 M⁻¹. Moreover, the Ratio (pH 6.0/pH 7.4) in test [11] was determined as 1.68e-06; in [13], 597000. For the same substance, the Steady State Binding, pH 7.4 (RU) in [12] came to 26.8 RU.
As to “mAb1 YDTN variant (M252Y/T256D) (antibody)”, the Ka in [10] stood at 1.07e+07 M⁻¹. Also, the Ratio (pH 6.0/pH 7.4) in test [11] worked out at 9.07e-07; in test [13], 1.1e+06. This substance returned a Steady State Binding, pH 7.4 (RU) in test [12] of 9.7 RU.
